# Laboratory results from IntAct's records for PubMed 12571249.
# B1: Syndecan-4 (Rattus norvegicus (Rat)), P34901 (parent)
# chain: MAPVCLFAPLLLLLLGGFPVAPGESIRETEVIDPQDLLEGRYFSGALPDDEDAGGLEQDSDFELSGSGDLDDTEEPRTFPEVISPLVPLDNHIPENAQPGIRVPSEPKELEENEVIPKRVPSDVGDDDVSNKVSMSSTSQGSNIFERTEVLAALIVGGVVGILFAVFLILLLVYRMKKKDEGSYDLGKKPIYKKAPTNEFYA
# Variants of: B1
# Details: with kpca_human PRKCA
row,Variant,effect of a mutation on the interaction
1,MAPVCLFAPLLLLLLGGFPVAPGESIRETEVIDPQDLLEGRYFSGALPDDEDAGGLEQDSDFELSGSGDLDDTEEPRTFPEVISPLVPLDNHIPENAQPGIRVPSEPKELEENEVIPKRVPSDVGDDDVSNKVSMSSTSQGSNIFERTEVLAALIVGGVVGILFAVFLILLLVYRMKKKDEGSYDLGKKPIFKKAPTNEFYA [Y192F],disrupting interaction
